Measured values from the nanobody polyreactivity screen of Harvey et al. (2022).

Assay: yeast display, Sf9 membrane polyspecificity reagent, FACS + sequencing; frameworks hold sequencing errors
In short: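 Polyreactivity labels are assigned by the sorting gate from which each nanobody was recovered. The gates were low and high (top ~1%), set on anti-HA fluorescence for expression and streptavidin fluorescence for reagent binding. Before sorting, galactose-induced (36–48 hours) yeast display cells were stained for 1 hour at 4 °C with 10% biotinylated, detergent-solubilized Sf9 membrane reagent.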

Sequence: QVQLVESGGGLVQAGGSLRLSCAASGFIFWSNAMGWYRQAPGKERELVAAISWSGGSTYYADSVKGRFTISRDNAKNTVYLQMNSLKQEDTAVYYCAAEFWGWDWDLEYWGQGTQVTVSS
- polyreactivity (PSR sort gate): high polyreactivity

Sequence: QVQLVESGGGLVQAGGSLRLSCAASGTFTVNTMGWYRQAPGKVRELVAAISTGDTTTYADSVKGRFTISRDNAKNTVYLQMNSLKPEDTAVYYCIVDIGVYAYESDYWGQGTQVTVSS
- polyreactivity (PSR sort gate): low polyreactivity

Sequence: QVQLVESGGGLVQAGGSLRLSCAASGSIFRVNTLGWYRQAPGKERELVATISSGARTNYADSVKGRFTISRDNAKNTVDLQLNSLKPEDTAVYYCAADRSWGYWGRSRYDYWGQGTQVTVSS
- polyreactivity (PSR sort gate): high polyreactivity

Sequence: QVQLVESGGGLVQAGGSLRLSCAASGLTFVTYVMGWYRQAPGKERELVAAISYSGGSTYYADSVKGRFTISRDNAKNTVYLQMNSLKPEDTAVYYCAAEWYGYQEDDYRGQGTQVTVSS
- polyreactivity (PSR sort gate): low polyreactivity

Sequence: QVQLVESGGGLVQAGGSLLLICAASGSTFPYNAMGWYRQAPGKQRELVASITSRGGSTYYADSVKGRFTISRDNAKNTVYLQMNSLKPQDTAVYYCATPGDTYGWTRRRYYYWGQGTQVTVSS
- polyreactivity (PSR sort gate): high polyreactivity

Sequence: QVQLVESGGGLVQAGGSLRLSCAASGSTFFANVMGWYRQAPGKEREFVAAINYRTGSTHYSDSVKGRFTISRDNAKNTVYLQMNSLKPEDTAVYYCAVYYQYTDVYQYSGYSVRYDYWGQGTQVTVSS
- polyreactivity (PSR sort gate): low polyreactivity

Sequence: QVQLVESGGGLVQAGGSLRLSCAASGFIFEDYAMGWYTQATGKERELVAAITWRGGRTYYADSVKGRFTISRDNAKNTVYLQMNSLKPEDTAVYYCRPQVYSYASRYGYWGQGTQVTVLS
- polyreactivity (PSR sort gate): low polyreactivity

Sequence: QVQLVESGGGLVQAGGSLRLSCAASGSTFRGYAKGWNRQAPGKERELVAAISSRGARTHYADSVKGRFTISRDNAKNTVYLQMNSLKPEDTAVYYCAVGSPYYDGMDYWGQGTQVTVSS
- polyreactivity (PSR sort gate): low polyreactivity

Sequence: QVQLVESGGGLVQAGGSLRLSCAPSGLIFYRYAMGWYRQAPGKERELVAAITRGGSTHYADSVKGRFTISRDNAKFTVYLQMNSLKPEDTAVYYCAATFKGRIYRYEYWGQGTQVTVSS
- polyreactivity (PSR sort gate): high polyreactivity

Sequence: QVQLVESGGGLDQAGGSLRLSCAASALIFSSYAMGWYRQAPGKERELVAAITGSGGRTYYADSVKGRFTISRDNAKNTVYLQMNSLKPEDTAVYYCAAKYPAPRYYTGYDYWGQGTQVTVSS
- polyreactivity (PSR sort gate): high polyreactivity

Sequence: QVQLVESGGGLVQAGGSLRLSCAASGSTFIWNAMGWYRQAPRKERELVATITYSGGSTYYADSVKGRFTISRDNAKNTVYLQMNSLKPEDTAVYYCATDATIPKCYTYPGEMDYWGQGTQVTVSS
- polyreactivity (PSR sort gate): low polyreactivity

Sequence: QVQLVESGGGLVQAGGSLRLSCAASGSTFFLYAMGWYRQAPGKERELVAAITYTDGDTYYADSVKGRFTISRDNAKNTVYLQMNSLKPEDTAVYYCAAYRFPYFPSIAYYYTYYSWGQGTQVTVSS
- polyreactivity (PSR sort gate): low polyreactivity

Sequence: QVQLVESGGGLVQPGGSLRLTCAAYGFIFGYNSMGWYSQAPGKERELVAAISSGGSTYYADSVNGLFTISRDNAKNTVYLQMNSVKPDDTAVYYCAVELGYPIQSDALWWDFEYWGQGTQVTVSS
- polyreactivity (PSR sort gate): low polyreactivity

Sequence: QVQLVESGGGLVQAGGSLRLSCAASGFTFWIYAMGWYRQAPGKERELVAVISRGGSTYYADSVKGRFTISRDNAKNTVYLQMNSMKPEDTAVYYCNAVGVRGYDYWGQGTQVTVSS
- polyreactivity (PSR sort gate): high polyreactivity

Sequence: QDQLVESGGGLVEAGGSLRLSCAASGRTFWLNAMGWYRQAPGKERELVATISSSSGSTTYADSVKGRFTSSRDNAKNTVYIQMNSLKPEDTAVYYCNVDDPFYSGVVEFDYWGQGTQVTVSS
- polyreactivity (PSR sort gate): low polyreactivity

Sequence: QVQLVESGGGLVQAGGSLRLSCAASGSTFGYNAMGWYRQAPGKERELVAAITYRGSTYYADSVKGRFTISRDNAKNTVYLQMNSLKPEDTAVYYCATQGARYYHTYGYWGQGTQVTVSS
- polyreactivity (PSR sort gate): low polyreactivity

Sequence: QVQLVESGGGLVQAGGSLRLSCAASGFIFKINAMGWYRQAPGKERELVAAINWTGGNTYYADSVKGRFTISRDNAKNTVYLQMNSLKPEDTAVYYCAAEFDVGWTWDYYWGQGTQVTVSS
- polyreactivity (PSR sort gate): high polyreactivity

Sequence: QLQLVESGGGLVQAGGSLRLSCAASGSTFRWYAKGWYRQAPGKERELVAAISYSGGRTYYADSVKGRFTISRDTAKNTVYLQMNSLKPEDTAVYYCAADYVESKSLLEYWGQGTQVTVSS
- polyreactivity (PSR sort gate): low polyreactivity

Sequence: QVQLQESGGGLVQAGGSLRLSCAASGSISNLIAKGWYRQAQGKEREFVAAIGPGANTNYADSVKGRFTISRDNANNTVSLQMNSLKPDDTAVFYCAVDYYGVAVYHYWGQGTQVTVSS
- polyreactivity (PSR sort gate): high polyreactivity

Sequence: QVQLVESGGGLVQAGGSLRLSCAASGFNFTLNTMGWYRQAPGKERELVAAINSGDSTYADSVKGRFTISRDNAKNTVYLQMNSLKPEDTAVYYCNADPDWWYPFNYWGQGTQVTVSS
- polyreactivity (PSR sort gate): low polyreactivity

Sequence: QVQLVESGGGLVHAGGSLRLSCAASGRIFERYAMGWYRQAPGKERELVAAISVSGSGTYYADSVKGRFTISRDNAKNTVYLQMNSLKPEDTAVYYCAADASLLGLFQGYDYWGQGTQVTVSS
- polyreactivity (PSR sort gate): low polyreactivity

Sequence: QVQLVESGGGLVQAGGSLRLSCAASGSIFPDNTMGWYRQAPGKERELVAAIDGRGGTTYYADSVKGRFTISRDNAKNTVYLQMNSLKPEDTAVYYCNAGVWTYWHIEMDYWGQGTQVTVSS
- polyreactivity (PSR sort gate): low polyreactivity

Sequence: QVQLAESGGGLVQAGGSLRLSCAASGSIFRLNAMGWYRQAPGKERELVAAINSGTNTYYADSVKGRFTISRDNAMNTVYLQMNSLKPEDTAVYYCAADWNDWHYDYWGQGTQVTVSS
- polyreactivity (PSR sort gate): low polyreactivity

Sequence: QVKLVVSGGGLVQAGGSLRLTCAASGRTFRRNAMGWYRQAPGKERELVAAISTSGGRTYYADSVKGRFTISRDNAKNTVYLQMNSLKAEDTAVYYCAADIPQTEGYWGQGTQVTVSS
- polyreactivity (PSR sort gate): low polyreactivity

Sequence: QVQLVESGGGLVQAGGSLRLSCAASGLIIRPYAMGWYRQAPGKERELVAAITSGGSTDYADSVKGRFTISRVNAKNSVYLQMYSRKPEDTAVYYCNGDIYPHDGYPWQGDYDYWGQGTQVTVSS
- polyreactivity (PSR sort gate): low polyreactivity

Sequence: QVQLVESGGGLVQAGGSLRLSCAASGRIFVFYAMGWYRQAPGKERELVAAISKSVGPTYYADSVKGRFTISRDNAKNTVYLQMNSLKPEDTAVYYCASDVDRFFTYKYDYWGQGTQVTVSS
- polyreactivity (PSR sort gate): low polyreactivity

Sequence: QDQHVESGGGLVQAGASLRLSCSASGRIFRRYAMGWYRQAPGKERELVAAISWSGGTTYYADSVKGRFTISRDNAKNTVYLQINSLKPEDTAVYYCAKLYSSVTTTYPYGLPRYDSWGQGTQVTLSS
- polyreactivity (PSR sort gate): high polyreactivity

Sequence: QVQLVESGGGLVQAGGSLRLSCAASGITFAYYAMGWYRQAPGKERELVAAITGDGGSTYYADSVKGRFTISRDNAKNTVYLQMNSLKPEDTAVYYCNAELSDYRYDWWDYDYWGQGTQVTVSS
- polyreactivity (PSR sort gate): high polyreactivity

Sequence: QVQLVESGGGLVQAGGSLRLSCAASGFTFQYYAMGWYRQAPGKERELVAAITRGDSTNYADSVKGRFTISRDNAKNTVYLQMNSLKPEDTAVYYCAKSVRYPASDYWGQGTQVTVSS
- polyreactivity (PSR sort gate): low polyreactivity

Sequence: QVQLVESGGGLVQAGGSLRLSCAASGFTFVDYDMGWYRQAPGKERELVAAITYSGGSTSYADSVKGRFTISRDYAKNTVYLQMNSLKPEDTAVYYCNTEGFLSAVYAFGYWGQGTQVTVSS
- polyreactivity (PSR sort gate): low polyreactivity

Sequence: QVQLVESAGGLVQAGGSLRLSSAASGRTFIVYAMGWYRQARGKERELVAGITRGSTNYADSVKGRFTISRDNAKNTVYVQMNCLKPEDTAVYYCAARWQWLNGYYYWGQGTQVTVSS
- polyreactivity (PSR sort gate): high polyreactivity

Sequence: QVQLVESGGGLVQAGGSLRLSCAASGRTFTGYAMGWYRKAPGKERELVAAIRRTASTYYADSVKGRFTISRDNAKNTVYLQMNSLKPEDTAVYYCAVRAAHRGTYYYWGQGTQVTVSS
- polyreactivity (PSR sort gate): high polyreactivity

Sequence: QVQLVESGGGLVQAGGSLRLSCAASGSIDGRYAMGWYRQAPGKERELVAVITSGGSTNYADSVKGRFTISRDNAKNTVYLQMKSLKPEDTAVYYCAVRPYALHRLADQPGGDDYWGQGTQVTVSS
- polyreactivity (PSR sort gate): low polyreactivity

Sequence: QVQLGESGGGLVQAGGSLRLICAASGSTTPGNAMGWYRQAPGKQREFDADINSGGGTNYADSVKGRFTISRDNAKNNVYLQMNSLKPEDTAVYYCAKGYRRSFIGYWYLKYGYWGQGTQVTVSS
- polyreactivity (PSR sort gate): high polyreactivity

Sequence: QVQLVESGGGLVQAGGSLRLSCAASGRTFVGYAMGWYRQAPGKERELVAAISGSGVRTYYADSVKGRFTISRDNAKNTVYLQMNSLKPEDTAVYYCAVRQGWYNFRYDYWGQGTQVTVSS
- polyreactivity (PSR sort gate): high polyreactivity

Sequence: QVQLVESGGGLVQAGGSLRLSCAASGFISVSNAMGWYRQAPGKERELVAAIRGSGGSTYYADSVKGRFTISRDNAKNTVYLQMNSLKPEDTAVYYCAATAYPRGSPPYNYWGQGTQVTVSS
- polyreactivity (PSR sort gate): high polyreactivity

Sequence: QVQLVESVGGLVQAGGSLRLSCAASGSTFRINAMGWYRQAPGKEMELVADINSGGNTTYADSVKGRFTISRDNAKNTVYLQMNSLKPEDTAVYYCAAEPVFDLWEFLLDYGYDYWGQGTQVTLSS
- polyreactivity (PSR sort gate): low polyreactivity

Sequence: QVQLVESGGGLVQAGGSLRLSCAASGRIFRYYAMGWSRQAPGKERELVAAISSSGGSTYYADSVKGRFTISRDNAKNTVYLQMNSLKPEDTAVYYCAGVFRLGVGYEYWGQGTQVTVSS
- polyreactivity (PSR sort gate): high polyreactivity

Sequence: QVQLVESGGGLVQAGGSLRLSCAASGRTFYDNTMGWYRQAPWKERELVAAISRGGSTYADSVKGRFTISRDNAKNTVYLQMNSLKPEDTAVYYCNKRSITTEYGYWGQGTQVTVSS
- polyreactivity (PSR sort gate): low polyreactivity

Sequence: QVQLVESGGGLVQAGGSLRLSCAASGRTFARNAMGWYRQAPGKERELVAAISSSGGSTYYADSVKGRFTISRDNAKNTVYLQMNSLKPEDTAVYYCARYSSFTYDYWGQGTQVTVSS
- polyreactivity (PSR sort gate): high polyreactivity

Sequence: QVQLVESGGGLVQAGGSLRLSCAASGRIFSVYAMGWYRQAPGKERELVAAITNGGRTNYADSVKGRFTISRDNAKNTVYLQMNSLKPEDTAVYYCATDPVKSGYQRYYYWGQGTQVTVSS
- polyreactivity (PSR sort gate): low polyreactivity

Sequence: QVQLVESGGGLVQAGGSLRLSCAASGSTFRRYAMGWYRQAPGKERELVAAITRRGGSTYYADSVKGRFTISRDNAKNTVYLQMNSLKPEDTAVYYCNAVPVVRAGHGYDSWGQGTQVTVSS
- polyreactivity (PSR sort gate): high polyreactivity

Sequence: QVQLVDSGGGLVQAGGSLRLSCAASGSIFRGYAMGWYRPAPGKESGLVAAISRDGGSTYYADSVKGRFTISRDNAKNTVYLQMNSLKPEDTAVYYCAADYVAYATYGDGDYWGQGTQVTVSS
- polyreactivity (PSR sort gate): high polyreactivity
